Results published in patent US20250154283A1 (published 2025).

Assays:
[1] = target: T1, biotinylated human VWF cysteine knot (CK) domain construct (human, biotin on the in vitro biotinylation tag (residue not stated); one N-glycan); experiment: SPR, scFv captured on anti-SV5, pH 7.4; apparent Kd
T1 construct: Disulfide-linked homodimer; also called biotinylated human VWF CK domain; human VWF CK domain construct
T1 chain: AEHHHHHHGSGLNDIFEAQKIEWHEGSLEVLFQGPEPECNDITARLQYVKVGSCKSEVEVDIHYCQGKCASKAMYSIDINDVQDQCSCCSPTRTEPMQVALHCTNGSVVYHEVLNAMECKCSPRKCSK

[2] = target: T2, His-StrepTagII-HRV3C-cyno VWF-CK-HA-tag (cynomolgus monkey); experiment: solution-phase equilibrium binding, unbound antibody by ELISA
T2 construct: also called recombinant cyno CK domain; cyno CK
T2 chain: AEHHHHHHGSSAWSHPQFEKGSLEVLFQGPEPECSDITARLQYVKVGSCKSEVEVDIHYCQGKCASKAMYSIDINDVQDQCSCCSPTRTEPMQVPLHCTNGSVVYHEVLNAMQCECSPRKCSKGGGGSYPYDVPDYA

[3] = target: T3, human plasma-derived von Willebrand Factor (VWF) (human, UniProt P04275 764-2813); experiment: VWF:FVIIIB enzyme immunoassay, FVIII binding capacity of plasma VWF after incubation with 200 or 600 nM antibody; FVIII as the partner tested
T3 construct: also called pd-VWF; human plasma-derived VWF

[4] = target: human plasma-derived von Willebrand Factor (VWF)

B1: 17561_Lib6_scFv (scFv, not shown: small tags and cut ends)
scFv: EVQLVQSGAEVKKPGASVKVSCKASGYTFTDLPISWVRQAPGQGLEWMGWINPYTGDTNYAQKLQGRGTMTTDPSTSTAYMELRSLRSDDTAVYYCARDGVILGYYYYYGMDVWGQGTTVTVSSSGGSTITSYNVYYTKLSSSGTESALTQPASVSGSPGQSITISCTGTDLGSKSVSWYQQHPGKAPKLMIYDNFNRPSGVSNRFSGSKSGNTASLTISGLQAEDEADYYCSSRTVSGTYVFGGGTKLTVL
In the case of B1, the Kd [1] is reported as 10 nM.

B2: Lib1_P1_G3 OA (antibody, human IgG4 S228P, kappa, F234A L235A)
heavy: QVQLVQSGAEVKKPGASVKVSCKVSGYTSRQYIHWVRQAPGKGLEWMGWVTPIFGTTNYAQKFQGRVTMTEDTSTDTAYMELSSLKSEDTAVYYCAREWTGTTAFDIWGQGTLVTVSSASTKGPSVFPLAPCSRSTSESTAALGCLVKDYFPEPVTVSWNSGALTSGVHTFPAVLQSSGLYSLSSVVTVPSSSLGTKTYTCNVDHKPSNTKVDKRVESKYGPPCPPCPAPEAAGGPSVFLFPPKPKDTLMISRTPEVTCVVVDVSQEDPEVQFNWYVDGVEVHNAKTKPREEQFNSTYRVVSVLTVLHQDWLNGKEYKCKVSNKGLPSSIEKTISKAKGQPREPQVYTLPPSQEEMTKNQVSLSCAVKGFYPSDIAVEWESNGQPENNYKTTPPVLDSDGSFFLVSRLTVDKSRWQEGNVFSCSVMHEALHNHYTQKSLSLSLG
chain: ESKYGPPCPPCPAPEAAGGPSVFLFPPKPKDTLMISRTPEVTCVVVDVSQEDPEVQFNWYVDGVEVHNAKTKPREEQFNSTYRVVSVLTVLHQDWLNGKEYKCKVSNKGLPSSIEKTISKAKGQPREPQVYTLPPSQEEMTKNQVSLWCLVKGFYPSDIAVEWESNGQPENNYKTTPPVLDSDGSFFLYSRLTVDKSRWQEGNVFSCSVMHEALHNHYTQKSLSLSLG
light: DIQMTQSPSSVSASVGDRVTITCRASQDIGHYLAWYQQKPGKAPKLLIYAASNRASGVPSRFSGSGSGTDFTLTISSLQPEDFANYYCQQGYSAPYGFGGGTKVEIKRTVAAPSVFIFPPSDEQLKSGTASVVCLLNNFYPREAKVQWKVDNALQSGNSQESVTEQDSKDSTYSLSSTLTLSKADYEKHKVYACEVTHQGLSSPVTKSFNRGEC
notes: monovalent one-arm human IgG4
B2 was tested, and the “fold change in Kd, cyno CK against human CK” value [2] was less than 2 fold and the “VWF:FVIII level (% of untreated donor-matched plasma)” value [3] was greater than 80%.

B3: Lib1_P1_A6 OA (antibody, human IgG4 S228P, kappa, F234A L235A)
heavy: QVQLVQSGAEVKKPGASVKVSCKVSGSTFSNYAIHWVRQAPGKGLEWMGGIVPLSGTAIYAQKFQGRVTMTEDTSTDTAYMELSSLKSEDTAVYYCARDQGESSGWYAIYYGMDVWGQGTTVTVSSASTKGPSVFPLAPCSRSTSESTAALGCLVKDYFPEPVTVSWNSGALTSGVHTFPAVLQSSGLYSLSSVVTVPSSSLGTKTYTCNVDHKPSNTKVDKRVESKYGPPCPPCPAPEAAGGPSVFLFPPKPKDTLMISRTPEVTCVVVDVSQEDPEVQFNWYVDGVEVHNAKTKPREEQFNSTYRVVSVLTVLHQDWLNGKEYKCKVSNKGLPSSIEKTISKAKGQPREPQVYTLPPSQEEMTKNQVSLSCAVKGFYPSDIAVEWESNGQPENNYKTTPPVLDSDGSFFLVSRLTVDKSRWQEGNVFSCSVMHEALHNHYTQKSLSLSLG
chain: B2 chain
light: DIQMTQSPSSVSASVGDRVTITCRASQGIGTWLAWYQQKPGKAPKLLIYGSSSRASGVPSRFSGSGSGTDFTLTISSLQPEDFANYYCQQSYGKPTFGGGTKVEIKRTVAAPSVFIFPPSDEQLKSGTASVVCLLNNFYPREAKVQWKVDNALQSGNSQESVTEQDSKDSTYSLSSTLTLSKADYEKHKVYACEVTHQGLSSPVTKSFNRGEC
notes: monovalent one-arm human IgG4; also called monovalent (one-arm) Lib1_P1_A6
For B3, the “fold change in Kd, cyno CK against human CK” value [2] was less than 2 fold and the “VWF:FVIII level (% of untreated donor-matched plasma)” value [3] was greater than 80%.

B4: ADAM Metallopeptidase With Thrombospondin Type 1 Motif 13 (ADAMTS13) (protein)
chain: AAGGILHLELLVAVGPDVFQAHQEDTERYVLTNLNIGAELLRDPSLGAQFRVHLVKMVILTEPEGAPNITANLTSSLLSVCGWSQTINPEDDTDPGHADLVLYITRFDLELPDGNRQVRGVTQLGGACSPTWSCLITEDTGFDLGVTIAHEIGHSFGLEHDGAPGSGCGPSGHVMASDGAAPRAGLAWSPCSRRQLLSLLSAGRARCVWDPPRPQPGSAGHPPDAQPGLYYSANEQCRVAFGPKAVACTFAREHLDMCQALSCHTDPLDQSSCSRLLVPLLDGTECGVEKWCSKGRCRSLVELTPIAAVHGRWSSWGPRSPCSRSCGGGVVTRRRQCNNPRPAFGGRACVGADLQAEMCNTQACEKTQLEFMSQQCARTDGQPLRSSPGGASFYHWGAAVPHSQGDALCRHMCRAIGESFIMKRGDSFLDGTRCMPSGPREDGTLSLCVSGSCRTFGCDGRMDSQQVWDRCQVCGGDNSTCSPRKGSFTAGRAREYVTFLTVTPNLTSVYIANHRPLFTHLAVRIGGRYVVAGKMSISPNTTYPSLLEDGRVEYRVALTEDRLPRLEEIRIWGPLQEDADIQVYRRYGEEYGNLTRPDITFTYFQPKPRQAWVWAAVRGPCSVSCGAGLRWVNYSCLDQARKELVETVQCQGSQQPPAWPEACVLEPCPPYWAVGDFGPCSASCGGGLRERPVRCVEAQGSLLKTLPPARCRAGAQQPAVALETCNPQPCPARWEVSEPSSCTSAGGAGLALENETCVPGADGLEAPVTEGPGSVDEKLPAPEPCVGMSCPPGWGHLDATSAGEKAPSPWGSIRTGAQAAHVWTPAAGSCSVSCGRGLMELRFLCMDSALRVPVQEELCGLASKPGSRREVCQAVPCPARWQYKLAACSVSCGRGVVRRILYCARAHGEDDGEEILLDTQCQGLPRPEPQEACSLEPCPPRWKVMSLGPCSASCGLGTARRSVACVQLDQGQDVEVDEAACAALVRPEASVPCLIADCTYRWHVGTWMECSVSCGDGIQRRRDTCLGPQAQAPVPADFCQHLPKPVTVRGCWAGPCVGQGTPSLVPHEEAAAPGRTTATPAGASLEWSQARGLLFSPAPQPRRLLPGPQENSVQSSACGRQHLEPTGTIDMRGPGQADCAVAIGRPLGEVVTLRVLESSLNCSAGDMLLLWGRLTWRKMCRKLLDMTFSSKTNTLVVRQRCGRPGGGVLLRYGSQLAPETFYRECDMQLFGPWGEIVSPSLSPATSNAGGCRLFINVAPHARIAIHALATNMGAGTEGANASYILIRDTHSLRTTAFHGQQVLYWESESSQAEMEFSEGFLKAQASLRGQYWTLQSWVPEMQDPQSWKGKEGT
In the case of B4, the “VWF multimer distribution (LMW/IMW/HMW) after ristocetin, in the presence of 600 nM Lib1_P1_A6 OA” value [4] is reported as “The same shift in VWF multimer pattern was observed when plasma was treated with ristocetin in the presence of 600 nM antibody including Lib1_P1_A9 and Lib1_P1_A6” and the “VWF multimer distribution (LMW/IMW/HMW) after ristocetin, in the presence of 600 nM Lib1_P1_A9 OA” value [4] is reported as “The same shift in VWF multimer pattern was observed when plasma was treated with ristocetin in the presence of 600 nM antibody including Lib1_P1_A9 and Lib1_P1_A6”.

B5: Lib1_P1_A9_scFv (scFv, not shown: small tags and cut ends)
scFv: QVQLVQSGAEVKKPGASVKVSCKVSGDTLSSYGIHWVRQAPGKGLEWMGGSIPSFGTAIYAQKFQGRVTMTEDTSTDTAYMELSSLKSEDTAVYYCTSEGPWLPFFSFDYWGQGTLVTVSSSGGSTITSYNVYYTKLSSSGTDIQMTQSPSSVSASVGDRVTITCRASQGISRNLAWYQQKPGKAPKLLIYKASSLASGVPSRFSGSGSGTDFTLTISSLQPEDFANYYCQQSFSTPVTFGGGTKVEIK
notes: soluble scFv, VH-linker-VL, expressed in S. cerevisiae (applies to all 63 scFvs)
Binder B5 has a Kd [1] of 0.05 nM.
